Positions count from the first letter of the chain named. Names may count otherwise.
Target: GST-PpROP4CA (G15V)
Experiment: pull-down (MBP pull-down, Coomassie-stained SDS-PAGE, band quantification)
Settings: chain shown with the change; three replicates; parent: est. 0.31; read off a plot

Sequence of GST-PpROP4CA (G15V) (chain, as listed by the source G15V): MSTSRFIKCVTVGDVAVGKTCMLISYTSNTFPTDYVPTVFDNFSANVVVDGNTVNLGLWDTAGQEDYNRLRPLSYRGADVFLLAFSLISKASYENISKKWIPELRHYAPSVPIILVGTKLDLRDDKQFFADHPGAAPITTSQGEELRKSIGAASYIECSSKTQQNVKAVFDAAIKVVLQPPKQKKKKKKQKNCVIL

B1: MBP-PpRopGAP1 (wild type), A0A2K1KNT6 R239L (protein)
chain: MTQVLPTQIHLGSFTPDQSESEDYVNALHYVSDTDTDGYSGNHASPMILGDATISIRELCKEPEARKSGLSHSSSFSSITRGRWGEIGARSRNGSLNRRHSSFRSGSFNRSNNDQERERSAQLSLVALLLATVRRSVLTMCQDVEEGDESSLEIGWPTDVQHVAHVTFDRYNGFLGLPQEFEVEVPGRVPSASQSVFGVSAESMQCSYDHNGNSVPTILLLMQERLYHQGGLKAEGIFLINAENSHHEHVRDQLNKGIVPMDIDSYCLAGLIKAWFRELPQGVLDVLTPEQVLECHTEEESVALVKLLPPTQAALLDWAVNLMADVVQDEVVNKMNARNIAMVFAPNMTQMADPLTALMHAVQVMNLLKTLILRTLKDREEAILEQAQGLTRAEASEGDEPDSECNNVVLTSQERQNSLREEEASKVDCDEYSQRILIPVKRNTKVNSISKSGNLVNTIDHNNQRVEAW
B1 gave an other: Protein ratio of 0.25.

B2: MBP-PpRopGAP1 (wild type), A0A2K1KNT6 H165A (protein)
chain: B1 chain with H165A, L239R
In the case of B2, the other: Protein ratio is reported as 0.1.

Source: article PMC10625565
